Test results published in US20150093388A1 (IMMUNOGEN, published 2015).
Numbering of substitutions follows the chain as printed. Names may count otherwise.

Tests used:
[1] = target: T1, human folate receptor 1 (FOLR1) on cells, in cell lysates and in FFPE tissues (human, UniProt P15328 25-234, N-glycosylated at positions 69, 161 and 201); test: Western blot of cell lysates
T1 construct: also called folate receptor alpha; FR-alpha
Protocol: (§1) Human FOLR1 has three potential sites for N-glycosylation at positions 69, 161 and 201 (UniProt), and, as reported in literature, all three sites are glycosylated. To characterize the nature of the epitopes recognized by the anti-FOLR1 antibodies described herein, binding experiments were performed with deglycosylated and non-treated receptor. Of the generated anti-FOLR1 clones, only clone 2.1 was used in the study because, based on the sequencing data, the clones are related and likely to bind to the same epitope. In addition to clone 2.1, two other anti-FOLR1 antibodies were included: huMov19 (WO 2011/106528) and clone BN3.2 (Leica). In order to deglycosylate FOLR1, recombinant human FOLR1 or lysates of FOLR1-positive KB or Igrov-1 cells were treated with a mixture of deglycosylation enzymes (Enzymatic DeGlycoMX Kit, QA-bio) according to the Manufacturer's protocol. Then, samples of treated and non-treated FOLR1 were used in ELISA and Western blot analysis. […] After 2 h incubation, antibody-antigen complexes were detected with hip-labeled goat anti-human (for huMov19) or anti-murine (for 2.1) secondary antibody (FIG. 7). […] The membrane was incubated with the anti-FOLR1 antibodies 2.1, huMov19, or BN3.2, and the antigen-antibody complexes were detected with the appropriate secondary anti-murine or anti human antibodies conjugated with horse-radish peroxidase (FIG. 8).

[2] = target: T2, deglycosylated human FOLR1 in lysates of KB and Igrov-1 cells (human, UniProt P15328 25-234, glycans removed with a mixture of deglycosylation enzymes (Enzymatic DeGlycoMX Kit)); test: Western blot of enzymatically deglycosylated cell lysates
T2 construct: Endogenous FOLR1 of cell lysates after enzymatic deglycosylation; also called deglycosylated lysates
Protocol: as §1

[3] = target: T3, recombinant human FOLR1 (non-treated) (human, UniProt P15328 25-233, limits assumed, N-glycosylated (non-treated)); test: ELISA, FOLR1 immobilized on the plate, hrp goat anti-human secondary
T3 construct: also called huFOLR1 recombinant protein; non-treated FOLR1
Protocol: as §1

[4] = target: T4, deglycosylated recombinant human FOLR1 (human, UniProt P15328 25-233, limits assumed, glycans removed with a mixture of deglycosylation enzymes (Enzymatic DeGlycoMX Kit)); test: ELISA, deglycosylated FOLR1 immobilized on the plate, hrp goat anti-human secondary
T4 construct: also called deglycosylated FOLR1
Protocol: as §1

[5] = target: T5, recombinant FOLR2-His (R&D Systems) (UniProt P14207 17-228, limits assumed); test: ELISA, FOLR2-His immobilized on Ni-NTA plate
T5 construct: not shown: His tag
Protocol: (§2) FOLR1 is a member of Folate Receptor family. Cross-reactivity of the anti-FOLR1 antibodies with the other members of the family FOLR2 and FOLR3 was assayed by ELISA. Recombinant protein FOLR2-His or FOLR3-His (R&D Systems) was immobilized to Ni-NTA plates (QIAGEN) and the anti-FOLR1 antibodies were added to the plates and incubated for 2 hours at room temperature. As positive controls for FOLR2 and FOLR3 ELISA polyclonal anti-FOLR2 and FOLR3 antibodies (R&D systems), respectively, were used. The formed antibody-antigen complexes were detected with hip-labeled goat anti-murine secondary antibody.

[6] = target: T6, recombinant FOLR3-His (R&D Systems) (UniProt P41439 23-245, limits assumed); test: ELISA, FOLR3-His immobilized on Ni-NTA plate
T6 construct: not shown: His tag
Protocol: as §2

[7] = target: T7, recombinant human FOLR1-murine IgG2a Fc protein (human; murine, UniProt P15328 25-234, limits assumed); test: ELISA, recombinant human FOLR1-murine Fc2a immobilized on the plate, hrp goat anti-murine secondary
T7 construct: also called humanFOLR1-murine Fc2a; FOLR1-Fc; not shown: murine IgG2a Fc
Protocol: The binding affinity of the anti-FOLR1 antibodies was examined by ELISA where recombinant humanFOLR1-murine Fc2a protein was used as the antigen. The recombinant protein was immobilized on microtiter plates, and the antibodies were added at a range of concentrations to the plates. The plates were incubated for two hours at room temperature, washed with PBS supplemented with 0.05% Tween-20, and incubated with hrp-labeled goat anti-murine secondary antibody for one hour at room temperature. The plates were washed with PBS/Tween-20 again, and bound hrp-conjugated antibody was detected by adding the hrp-substrate TMB (Bio-FX).

T5 sequence (P14207 17-228 limits assumed): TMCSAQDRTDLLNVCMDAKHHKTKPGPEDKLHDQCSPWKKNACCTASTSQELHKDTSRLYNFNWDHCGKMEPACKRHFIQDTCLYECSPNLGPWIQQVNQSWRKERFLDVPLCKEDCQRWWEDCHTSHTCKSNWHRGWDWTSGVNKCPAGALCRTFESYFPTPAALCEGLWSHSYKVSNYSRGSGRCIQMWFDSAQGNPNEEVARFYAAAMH
T6 sequence (P41439 23-245 limits assumed): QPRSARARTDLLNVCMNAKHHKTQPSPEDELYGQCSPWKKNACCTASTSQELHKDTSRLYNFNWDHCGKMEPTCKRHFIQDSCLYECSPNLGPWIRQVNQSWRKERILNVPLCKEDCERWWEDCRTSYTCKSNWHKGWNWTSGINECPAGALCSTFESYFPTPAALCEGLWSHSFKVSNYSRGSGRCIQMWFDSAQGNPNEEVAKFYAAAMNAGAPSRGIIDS
T4 sequence (P15328 25-233 limits assumed): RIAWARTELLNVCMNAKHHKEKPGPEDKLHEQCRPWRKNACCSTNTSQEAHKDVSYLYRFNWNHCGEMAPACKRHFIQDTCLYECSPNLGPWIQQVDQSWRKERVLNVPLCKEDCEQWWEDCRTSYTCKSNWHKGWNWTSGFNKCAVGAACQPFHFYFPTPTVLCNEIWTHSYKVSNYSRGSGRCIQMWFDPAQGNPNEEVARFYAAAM
T3 sequence (P15328 25-233 limits assumed): as above
T2 sequence (P15328 25-234): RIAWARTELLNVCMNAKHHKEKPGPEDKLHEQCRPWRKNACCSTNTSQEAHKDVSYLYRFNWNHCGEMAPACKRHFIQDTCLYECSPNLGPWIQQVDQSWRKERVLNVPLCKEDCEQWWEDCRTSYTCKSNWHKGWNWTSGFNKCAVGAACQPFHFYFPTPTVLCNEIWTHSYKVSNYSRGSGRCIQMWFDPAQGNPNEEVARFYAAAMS
T7 sequence (P15328 25-234 limits assumed): as the sequence (P15328 25-234) above
T1 sequence (P15328 25-234): as above

B1: huMov19 (antibody, human IgG1, kappa, V domains shown)
VH: QVQLVQSGAEVVKPGASVKISCKASGYTFTGYFMNWVKQSPGQSLEWIGRIHPYDGDTFYNQKFQGKATLTVDKSSNTAHMELLSLTSEDFAVYYCTRYDGSRAMDYWGQGTTVTVSS
VL: DIVLTQSPLSLAVSLGQPAIISCKASQSVSFAGTSLMHWYHQKPGQQPRLLIYRASNLEAGVPDRFSGSGSKTDFTLTISPVEAEDAATYYCQQSREYPYTFGGGTKLEIKR
notes: the full chains labelled huMov19 HC (55) and huMov19 LCv1.60 (57) are used; also called M9346A; antibody of IMGN853
binding result [1]: binds | binding result [2]: binds | binding result [3]: binds | binding result [4]: binds

B2: muFRIHC2-1 (anti-FOLR1 antibody 353.2-1, ATCC PTA-120197) (antibody, mouse IgG1, kappa, V domains shown)
VH: QVQLQQSGPELVKPGASVRISCKASGYTFTNSYIHWVKKRPGQGLEWIGWIYPESLNTQYNEKFKAKATLTADKSSSTSYMQLSSLTSEDSAVYFCARRGIYYYSPYALDHWGQGASVTVSS
VL: DVVLTQTPLSLPVNIGDQASISCKSSKSLLNSDGFTYLDWYLQKPGQSPQLLIYLVSNHFSGVPDRFSGSGSGTDFTLKISRVEAEDLGVYYCFQSNYLPLTFGGGTKLEIKR
notes: also called FOLR1-2.1
binding result [5]: no binding (tested: 10^-8 M) | binding result [6]: no binding (tested: about 3x10^-8 M) | EC50 [7]: 500 pM

B3: muFRIHC5-7 (anti-FOLR1 antibody 353.5-7) (antibody, mouse IgG1, kappa, V domains shown)
VH: B2 VH with L11V, S32Y, K39Q, E54G, L56F, T58V, Q59E, S79V, Y103F, H111Y
VL: B2 VL with S26T, K27E, I111V
notes: Murine monoclonal; also called clone 5.7
binding result [5]: no binding (tested: 10^-8 M) | binding result [6]: no binding (tested: about 3x10^-8 M)

B4: anti-FOLR1 antibody 353.9-21 (antibody, mouse IgG1, kappa, V domains shown)
VH: QVQLQQSGPDLVKPGASVRISCKASGFTFTNYYIHWVKQRPGQGLEWIGWIYPENVNVRYNDKFKAKATLTADKSSSTAYMQLSSLTSEDSAVYFCARRGIYYYSPYAMDYWGQGASVTVSS
VL: B2 VL with I15L, S26T
notes: Sister subclone of 9.20; also called clone 9.21
binding result [5]: no binding (tested: 10^-8 M) | binding result [6]: no binding (tested: about 3x10^-8 M)
